Results from the supplement of paper PMC9170038.

Tested on: MS2 coat protein
Assay: apparent KD of MS2 coat protein; designed switch direction (-1 OFF switch, 1 ON switch): 1; higher = weaker reporter binding
Procedure, shortened: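 Normalised cluster fluorescence was curve-fitted, and each design's median over clusters is its apparent KD. Before this, SNAP-549-labelled MS2 coat protein was titrated from 0.7 or 1.5 nM, doubling to 3 µM, over RNA switches transcribed on Illumina chips by stalled E. coli RNA polymerase. Titrations had no input, 200 uM small-molecule ligand, or an oligonucleotide input, and steps lasted 0.8–1.5 h (lowest) to 10–20 min (highest).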

[1] = Eterna round: R95, input ligand: FMN 200 uM
[2] = Eterna round: R95, input ligand: microRNA oligo, concentration not stated
[3] = Eterna round: R95, input ligand: none
[4] = input ligand: microRNA oligo, concentration not stated

Row | Sequence | apparent KD of MS2 coat protein [1] [µM] | apparent KD of MS2 coat protein [2] [µM] | apparent KD of MS2 coat protein [3] [µM] | apparent KD of MS2 coat protein (input ligand: FMN 200 uM) [µM] | apparent KD of MS2 coat protein [4] [µM] | apparent KD of MS2 coat protein (input ligand: none) [µM]
1 | GUAGAUGUAGAGGAGGAUAUUCAAUGAGGAACAUGAGGAUCACCCAUGUAAGAGAGAGAUGAUAGGAAGAAGGCUUAGAGAGAUG [Altered State 2-5 - Jieux - Same State 2] (puzzle: Same State 2) | 0.0242 | 0.0317 | 0.0431 | – | – | –
2 | AAUUAUUAACAUGAGGAUCACCCAUGUGUUUUUUGCUCGUCAUGUAUUAUUAUUAUUAUUAUUAUUAUUAUUAUUAA [my second RNA] (puzzle: Sensor for hsa-mir-208a version 2) | 0.0419 | 0.0188 | 0.0524 | – | – | –
3 | AUACAUGAGGAUCACCCAUGUGAGCAGAGAUAUCUGAUGUACAAGGAUAUCCGAGGGAUCCCGAUGGAGAAGGUGUGCCACCUG [Eternabot solution 22] (Eterna round: R96, puzzle: Same State NG 3) | – | – | – | 0.0571 | 0.043 | 0.0559
4 | GGCUAUCGCGUACGAUAGCUUAGGCAUGUACAUGAGGAUCACCCAUGUCAUGUACAGGCUUGUUGCUCGUCUUAUUG [JL-shm-2.37 JL mod] (puzzle: Sensor for hsa-mir-208a) | 0.202 | 0.0158 | 0.291 | – | – | –
5 | UCUUGGUUUUUGCUCGUUUUUUGUGUUGAACAUGAGGAUCACCCAUGUAUUGUACGGUCCAAUUUAAUGAUGGUCCA [JMF 36] (puzzle: Sensor for hsa-mir-208a) | 0.0308 | 0.0178 | 0.0324 | – | – | –
6 | CGUAGGUAGCUGGAGGAUAUUCGAGUGGUAACAUGAGGAUCACCCAUGUGUUGAGAGGUACAUGAGGAGAAGGCUAGCUGCCUGC (puzzle: Same State 2) | 0.0176 | 0.0582 | 0.0751 | – | – | –
7 | GCUCGUAUCACAGCCAACAUGAGGAUCACCCAUGUAUGUUGGUAGGAUAUCUAUAUUAAGGAUAUAGAGAAGGGCCGAACGAGC [SameState NG3 #11] (Eterna round: R96, puzzle: Same State NG 3) | – | – | – | 0.121 | 0.126 | 0.145
8 | AGAUGUUAAUCAGGAUAUGGGCACAUGAGGAUCACCCAUGUAAAUUCGAUACUAUGUGGAGACGUCUAGAAGGGAUGGCUAACA [SameState NG2 #84] (Eterna round: R96, puzzle: Same State NG 2) | – | – | – | 0.127 | 0.0822 | 0.137
9 | UUUAGUUGCGGGCAGGAUAUGUAUUAAAAUACAUGAGGAUCACCCAUGUGAGGCCGAAAAGGCCUACAGAAGGGCCAAACGCGAC [Laonerce - 23] (puzzle: Same State 2) | 0.0144 | 0.0845 | 0.117 | – | – | –
10 | UAGAAUCUAUCUCAGGAUAUCAUGUCAAAGACAUGAGGAUCACCCAUGUACCAGGAAACUGGUUAUGAGAAGGGAGAUAGAUUCU [Mat - Same State 2 - Mod - D33] (puzzle: Same State 2) | 0.16 | 0.158 | 0.281 | – | – | –
11 | GGGAAACCUCAAGGAUAUGCUACCGUUUCGGUAGCAGAAGGUGAUCACAUGAGGAUCACCCAUGUAUGCAUGCGUGAGCGUGCU [JL SSNG1 3.57] (Eterna round: R96, puzzle: Same State NG 1) | – | – | – | 0.0426 | 0.0713 | 0.047
12 | GGCCGGAGUCAAGGAUAUGCUACCGUUUCGGUAGCAGAAGGUGAUCACAUGAGGAUCACCCAUGUUUACUGGGAGACCACGGCC [JL SSNG1 3.70] (Eterna round: R96, puzzle: Same State NG 1) | – | – | – | 0.105 | 0.134 | 0.166
13 | GGUAAACAUGAGGAUCACCCAUGUAAUAAUAUGGGAGGAUAUGGGAAUUAAUUAAUUAAACCAGAAGGCCUAAUUG [Mat - Same State 1 - D85] (Eterna round: R96, puzzle: Same State 1) | – | – | – | 0.032 | 0.104 | 0.135
14 | AGUCCGGCCUGAGCUGGACUGAAGCAUGUACAUGAGGAUCACCCAUGUUCAUGUGCAGGCUUUUUGCUCGUCUUGUG [JL-shm-2.04 JL mod] (puzzle: Sensor for hsa-mir-208a) | 0.0977 | 0.0134 | 0.124 | – | – | –
15 | GCAUCACAUGAGGAUCACCCAUGUCUUCGGAGUCGAGGAUAUGGUCACUGUAAACAGUGGCCAGAAGGCGAGGUGC [SS1 - Son of Teenbexe v4] (puzzle: Same State 1) | – | 0.0534 | – | – | – | –
16 | UGAAUAGUUACAGGAUAUGAGCCGAAAAUUGGGUCAGAAGGGUGGGUGUUGUGCGCUAUGUGCUACAUGAGGAUCACCCAUGUU [SameState NG1 #35] (Eterna round: R96, puzzle: Same State NG 1) | – | – | – | 1.21 | 0.0233 | 0.208
17 | ACAUGAGAGAAAGGAUAUGGUGUACCUACAUGUGACAUGAGGAUCACCCAUGUGGUAAGUAUGACUCAGAAGGUUCAGAUAUGU [Equivalance 73 - Jieux - Same State NG 2] (Eterna round: R96, puzzle: Same State NG 2) | – | – | – | 0.0169 | 0.0656 | 0.126
18 | GGAGCCGGCCUAGGAUAUUUCAUAAAAGAACAUGAGGAUCACCCAUGUAGGCCAGAAGGCCUUGGGAAGAAGGAGGUCGGCUCC [Loop Effect - G28] (Eterna round: R96, puzzle: Same State NG 2) | – | – | – | 0.0144 | 0.0224 | 0.0318
19 | AAUUAUUAACAUGAGGAUCACCCAUGUAUUACUUCAUGUUUUUGCUCGUCUAUUAUUAUUAUUAUUAUUAUUAUUAA [Most simple design] (puzzle: Sensor for hsa-mir-208a version 2) | 0.282 | 0.0401 | 0.34 | – | – | –
20 | GGCCUCUGUCAAGGAUAUGCUACCGUUUCGGUAGCAGAAGGUGAUCACAUGCGGGUCACCCAUGUUUAGGCCAACAGGCCCGCC (Eterna round: R96, puzzle: Same State NG 1) | – | – | – | 0.063 | 0.00108 | 0.00357
21 | AUGAUCUACCGAAAGGUAGAUCGGCUUGUACAUGAGGAUCACCCAUGUAUGUACAAGCUUUUUGCUCGUCUUAUAAA [Modxample - Jieux - Sensor for bsa-mir-208a] (Eterna round: R96, puzzle: Sensor for hsa-mir-208a) | – | – | – | 0.279 | 0.0166 | 0.282
22 | UCUUGGUUUUUGCUCGUUUUUUGUGUUGAACAUGAGGAUCACCCAUGUAUUGUACAGUCCAAUUUAAUAAUGGUCCG [JMF 53] (puzzle: Sensor for hsa-mir-208a) | 0.0342 | 0.0254 | 0.0467 | – | – | –
23 | AGUAGUUUAACAUGAGGAUCACCCAUGUAUCUAUCUGUAACCUAGGAUAUGGGCGUUGUAUUUAACCAGAAGGAGGAUCGUUUA [JR_SSNG3_Sub047] (Eterna round: R96, puzzle: Same State NG 3) | – | – | – | 0.0178 | 0.0225 | 0.029
24 | AAUCCUGUCACAGGAUAUCCGAGGGCAACCCUCGGAGAAGGGUGAUAGUCUAACAAACACACACAUGAGGAUCACCCAUGUUAA [Sogece] (Eterna round: R96, puzzle: Same State NG 1) | – | – | – | 0.0769 | 0.113 | 0.133
25 | AUAAAACAUGAGGAUCACCCAUGUCAUCAAAGUCGAGGAUAUGGGCAAAUAAAAUAAGAACCAGAAGGCGAAUAAU [salish99_ss1_r3_043] (puzzle: Same State 1) | 0.106 | 0.298 | 0.501 | – | – | –
26 | GAUCGUUUGAUAGGAUAUCGCUAUACAUGAGGAUCACCCAUGUUUACCACGCUGGUUUUUCAUACCGAGAAGGAUUCUGAUGAG [salish99_SSNG02_r04_008] (Eterna round: R96, puzzle: Same State NG 2) | – | – | – | 0.0648 | 0.0497 | 0.0561
27 | AGCUAAAACGAAGGAUAUACUGACAUGAGGAUCACCCAUGUAUACAUGAUUUAUUGUGAUCACAUGUAGAAGGUCGUACUAACA [SameState NG2 #21] (Eterna round: R96, puzzle: Same State NG 2) | – | – | – | 0.31 | 0.269 | 0.413
